According to the DeepSol protein solubility set:

Experiment: soluble on expression in E. coli; label from the status in PepcDB or PDB records

Sequence	soluble on expression in E. coli
MGSDKIHHHHHHMKTTFNLSRFYKACNPSYTLNISNVLDRQYYIDFADVRGCKIVEELQRTIVRISPDEPTCQLFTGHIGCGKSTELQRLKTELELAGFHVVYFESSQDLDMADIDISDILLSVARQVSASLEGINIKLKGGYFTNLFKEVGDFLQSPIELSGQAELSLGIAKITAKTKDSTQMRNQLRQYLEPRTNSILQAINEEILERAVEQLKLRGQKGLVVIVDNLDRVDMRPLASGRSQPEYLFIDRGEQLRRLKCHLVYTIPLTLIFSNEYETLKNRLGGGIAPKVLPMVLVRQRDGSDYEPGMSLVRQLVLARAFPEVSLNERLLLITELFDHSQTLDRICRVSGGHIRNLLGLLYSCLQRQDPPFSRECLEAVIKDYRDDLLLAIDESQWELLFEVVQQQRVKGESDYQSLLRSMYLFEYRDPLGRWFGISPALAETEKVLAWQQKK	not soluble
MGSDKIHHHHHHMETIGQTLAKKDNHKYDTEKMTQAILSDQEIANFIAAHHLSKEQIKISLPKFNQYRLERTRFENHDQAYIAKGYQPLLVMNEGYADVAYKETKELIAAKKTQAISDRINVVSLPRSYKNISFDDINLDDVKRLDVFKRVADFVEQYPNPEQKGLYLYGDMGIGKSYLMAAMAHELSEQRGAATTLLHFPSFTIDVKNAINTGTVKKEIDAVKTADILILDDIGAEQSTSWIRDEVLQVILQYRMLEELPTFFTSNYSFKDLEAKLANIKGSDETWQAKRVMERIRYLAKEIHLEGENRR	not soluble
MAKVKRRDLLKAGAALAAAGTLGKGFAQEFYASPPTLLPRSRAPRVVVVGGGWGGTTVARKVKQQNPGVEVVLVEQKPIFMSCPMSNLFLAGVKPLEWLVFDYTNVVKDGVIFVQEKVLEINRDRRLVRTTGGYLAYDFLVLAPGIDYMYEAIPGYEEAKHFLPVGFKPFEHIALRRMLDRFDETGGELVMYIPPPPYRCPPGPYERAAMLAWRLKTKGVKGKVIVLDANPQPLAKAPGFLAAYNELYKDYLEYQPNMRITGLDYEKKVVRTELGDYPFTLANVIPPMKAAEIVRQAGLGERWANVRIPYFLSEADDRVYLVGDITGNTPYPKSGMIAYVSGTIVARHLTERLKGKPLAEIPPELPTNICYSFVDSEEAIWVSANYSWDEAEKRIKAQSQVDNQRSKANGEAAIGWALGLWNDMFGPA	soluble
MRVLVTGGAGFIGSSFVRYIVNTTDWEVLVYDKLTYAGRLENLHDVIDRIGFMRGDIADEEQFGRVLTEFEPDVVVNFAAETHVDRSINEPAPFMRTNIIGVFTILEAIRKRIDQIVLLHVSTDEVYGDLWNTGKEATESDPLNPSSPYSASKASGDLLIKAYGRTYGLKYRIVRPCNNYGPYQHVEKLIPRTIIRILHGKPPVIYGDGSQIRDWLYVEDTARAIHVVLEKGVDGEIYNVCGGMASTVKDIVVNILESMGKPRDYLVYGKSRPGEDRRYAMKCDKIRNLGWAPHVTLKEGLKITVKWYIENRWWWRPLLDKRYVLADHPW	soluble
VKLTEKQKAFCDYYIETLNATESYKKAGYKVKTDGAARVNASRLLTNANVRKYIEERMKQKESERIASQDEVLEFLTRVMRGQEVEEVVGFTEYGAVKEKKTPSARDRVKAAELLGKRYALFTEKVNVEGNMGVAIIDDIKEDDSDDAS	soluble
NQLLGMHQIEKEMTQYFGIQRCIVVAGDSDIQKKVLSDFGDVLTNTLNLLLPNGENTIAVMGGTTMAMVAENMGSLETEKRHNLFVPARGGIGEAVSVQANSISAVMANKTGGNYRALYVPEQLSRETYNSLLQEPSIQEVLTLISHANCVVHSIGRALHMAARRKMSDDEMVMLKQKNAVAESFGYFFDEEGKVVYKIPRIGLQLKNLQEIPYVVAIAGGKTKAKAIRAYMKNAPKQTWLITDEAAANEILKGVTL	not soluble
MGSDKIHHHHHHMTAPMNVIDDYYVSLGKIGILNYRTMDESGENAFLRKYLPSLSSPTILDVGANIGGYSKAILRESPSARVYAFEPHPITFGNLTKDTAEDRFHALNIGIGAKEETLDFYDYRDEDGSSHASLYKEVIEDIHHRPSTSHRVSIRRLDDVCAELGLPHIALLKIDTEGHELAALQGAERLIRSGAIDVIQFEFNEMNVISRCFFKDFWDFLPDYRFFRLLPHGSIEIKTYIPSFCEIFAFQNIVCVKKDLPEFF	not soluble
MSLKAVIFDMDGVLIDSEPLHLDYAFKLFKELNITMTPNEYSKFIGTTSLYMWSNIKDTYNLENTVESLINKERNGFFEFLSSPNTNIKPIDHIPELLGALKENNFKTAVASSSPMRVIKYIINNFELAKQFNELVTGDYVERSKPNPDIFLYAAKKLDVSPEQCVVIEDSHNGVLAAKNAGMKCIGFKNPNSGNQDLSKADTIIHSFNEIDILNEGHHHHHH	soluble
